Publication PMC10937199 (ESMO Open, 2024)

Legend:
Assay in all cases: Safety
Assay type in all cases: in vivo, human
[1] = tested on: patients with advanced solid tumors; conditions: Part A
[2] = tested on: patients with advanced solid tumors; conditions: Part B
[3] = tested on: patients with advanced solid tumors; conditions: Part FE
[4] = peposertib 100 mg b.i.d., all grade
[5] = peposertib 100 mg b.i.d., grade ≥3
[6] = peposertib 200 mg b.i.d., all grade
[7] = peposertib 200 mg b.i.d., grade ≥3
[8] = peposertib 250 mg b.i.d., all grade
[9] = peposertib 250 mg b.i.d., grade ≥3
[10] = peposertib 300 mg b.i.d., all grade
[11] = peposertib 300 mg b.i.d., grade ≥3
[12] = peposertib 400 mg b.i.d., all grade
[13] = peposertib 400 mg b.i.d., grade ≥3
[14] = peposertib 100 mg q.d., all grade
[15] = peposertib 100 mg q.d., grade ≥3
[16] = peposertib 150 mg q.d., all grade
[17] = peposertib 150 mg q.d., grade ≥3
[18] = peposertib 200 mg q.d., all grade
[19] = peposertib 200 mg q.d., grade ≥3
[20] = peposertib 250 mg q.d., all grade
[21] = peposertib 250 mg q.d., grade ≥3

Substance: Avelumab: anti-PD-L1 antibody, immune checkpoint inhibitor, 800 mg Q2W intravenous infusion [reference compound]
- Avelumab-related TEAE: diarrhea ([1]; all dose levels): 4 (13.8%)
- Avelumab-related TEAE: fatigue ([1]; all dose levels): 5 (17.2%)
- Avelumab-related TEAE: rash ([1]; all dose levels): 5 (17.2%)
- Avelumab-related TEAE: vomiting ([1]; all dose levels): 4 (13.8%)
- Serious TEAE, avelumab related [1, 4]: 0 n (%)
- TEAE, avelumab related [1, 4]: 2 (50.0) n (%)
- Serious TEAE, avelumab related [1, 5]: 0 n (%)
- TEAE, avelumab related [1, 5]: 0 n (%)
- Avelumab-related pneumonitis ([1]; peposertib 200 mg b.i.d.): 9.1%
- Serious TEAE, avelumab related [1, 6]: 3 (27.3) n (%)
- TEAE, avelumab related [1, 6]: 8 (72.7) n (%)
- Serious TEAE, avelumab related [1, 7]: 3 (27.3) n (%)
- TEAE, avelumab related [1, 7]: 3 (27.3) n (%)
- Avelumab-related pneumonitis ([1]; peposertib 250 mg b.i.d.): 25.0%
- Serious TEAE, avelumab related [1, 8]: 3 (75.0) n (%)
- TEAE, avelumab related [1, 8]: 3 (75.0) n (%)
- Serious TEAE, avelumab related [1, 9]: 3 (75.0) n (%)
- TEAE, avelumab related [1, 9]: 3 (75.0) n (%)
- Avelumab-related pneumonitis ([1]; peposertib 300 mg b.i.d.): 16.7%
- Serious TEAE, avelumab related [1, 10]: 1 (16.7) n (%)
- TEAE, avelumab related [1, 10]: 3 (50.0) n (%)
- Serious TEAE, avelumab related [1, 11]: 1 (16.7) n (%)
- TEAE, avelumab related [1, 11]: 2 (33.3) n (%)
- Serious TEAE, avelumab related [1, 12]: 3 (75.0) n (%)
- TEAE, avelumab related [1, 12]: 4 (100.0) n (%)
- Serious TEAE, avelumab related [1, 13]: 3 (75.0) n (%)
- TEAE, avelumab related [1, 13]: 4 (100.0) n (%)
- Avelumab-related TEAE: IRR ([2]; all dose levels): 8 (42.1%)
- Avelumab-related TEAE: fatigue ([2]; all dose levels): 3 (15.8%)
- Serious TEAE, avelumab related [2, 14]: 1 (33.3) n (%)
- TEAE, avelumab related [2, 14]: 3 (100.0) n (%)
- Serious TEAE, avelumab related [2, 15]: 1 (33.3) n (%)
- TEAE, avelumab related [2, 15]: 1 (33.3) n (%)
- Serious TEAE, avelumab related [2, 16]: 1 (33.3) n (%)
- TEAE, avelumab related [2, 16]: 3 (100.0) n (%)
- Serious TEAE, avelumab related [2, 17]: 1 (33.3) n (%)
- TEAE, avelumab related [2, 17]: 1 (33.3) n (%)
- Avelumab-related pneumonitis ([2]; peposertib 200 mg q.d.): 25.0%
- Serious TEAE, avelumab related [2, 18]: 0 n (%)
- TEAE, avelumab related [2, 18]: 3 (75.0) n (%)
- Serious TEAE, avelumab related [2, 19]: 0 n (%)
- TEAE, avelumab related [2, 19]: 0 n (%)
- Avelumab-related pneumonitis ([2]; peposertib 250 mg q.d.): 11.1%
- Serious TEAE, avelumab related [2, 20]: 2 (22.2) n (%)
- TEAE, avelumab related [2, 20]: 7 (77.8) n (%)
- Serious TEAE, avelumab related [2, 21]: 2 (22.2) n (%)
- TEAE, avelumab related [2, 21]: 3 (33.3) n (%)
- Avelumab-related TEAE: diarrhea ([3]; all dose levels): 3 (33.3%)
- Avelumab-related TEAE: fatigue ([3]; all dose levels): 3 (33.3%)
- Serious TEAE, avelumab related [3, 4]: 1 (25.0) n (%)
- TEAE, avelumab related [3, 4]: 3 (75.0) n (%)
- Serious TEAE, avelumab related [3, 5]: 1 (25.0) n (%)
- TEAE, avelumab related [3, 5]: 1 (25.0) n (%)
- Serious TEAE, avelumab related [3, 6]: 2 (40.0) n (%)
- TEAE, avelumab related [3, 6]: 5 (100.0) n (%)
- Serious TEAE, avelumab related [3, 7]: 2 (40.0) n (%)
- TEAE, avelumab related [3, 7]: 3 (60.0) n (%)
